According to US7657380:

T1: human CD30 (commercial, conjugated to digoxigenin) (human, UniProt P28908 19-379, limits assumed, conjugated to digoxigenin (DIG))
T1 sequence (looked up): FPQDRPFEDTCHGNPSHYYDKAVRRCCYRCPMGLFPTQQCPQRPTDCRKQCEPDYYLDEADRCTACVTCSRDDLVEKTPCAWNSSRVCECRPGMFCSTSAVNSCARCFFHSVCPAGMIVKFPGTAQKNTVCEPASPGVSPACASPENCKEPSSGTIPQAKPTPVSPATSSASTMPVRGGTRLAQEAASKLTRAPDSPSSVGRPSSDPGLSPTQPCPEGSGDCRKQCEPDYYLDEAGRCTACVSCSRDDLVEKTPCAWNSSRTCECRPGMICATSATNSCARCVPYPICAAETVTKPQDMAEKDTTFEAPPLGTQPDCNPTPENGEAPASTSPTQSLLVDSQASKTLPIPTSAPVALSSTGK

B1: AC10 H3/L3.1 (antibody, IgG1, name in Kabat numbering, V domains shown)
VH: QIQLVQSGPEVKKPGASVKVSCKASGYTFTDYYITWVRQAPGQGLEWMGWIYPGSGNTKYNEKFQGRFVFSVDTSASTAYLQISSLKAEDTAVYFCANYGNYWFAYWGQGTLVTVSS
VL: AIVLTQSPDSLAVSLGERATINCKASQSVDFDGDSYMNWYQQKPGQPPKVLIYAASNLESGIPARFSGSGSGTDFTLTINSLEAEDAATYYCQQSNEDPWTFGGGTKVEIK
B2: AC10 H3/L3.19 (antibody, IgG1, name in Kabat numbering, V domains shown)
VH: QIQLVQSGPEVKKPGASVKVSCKASGYTFTDYYITWVRQAPGQGLEWMGWIYPGSGNTKYNEKFQGRFVFSVDTSASTAYLQISSLKAEDTAVYFCANYGNYWFAYWGQGTLVTVSS
VL: DIVLTQSPDSLAVSLGERATINCKASQSVDFDGSSYMNWYQQKPGQPPKVLIYAASNLESGIPARFSGSGSGTDFTLTINSLEAEDAATYYCQQSNEDPWTFGGGTKVEIK
B3: AC10 H3/L3.18 (antibody, IgG1, name in Kabat numbering, V domains shown)
VH: QIQLVQSGPEVKKPGASVKVSCKASGYTFTDYYITWVRQAPGQGLEWMGWIYPGSGNTKYNEKFQGRFVFSVDTSASTAYLQISSLKAEDTAVYFCANYGNYWFAYWGQGTLVTVSS
VL: DIVLTQSPDSLAVSLGERATINCKASQSVDFDGNSYMNWYQQKPGQPPKVLIYAASNLESGIPARFSGSGSGTDFTLTINSLEAEDAATYYCQQSNEDPWTFGGGTKVEIK
B4: AC10 H3/L3.22 (antibody, IgG1, name in Kabat numbering, V domains shown)
VH: QIQLVQSGPEVKKPGASVKVSCKASGYTFTDYYITWVRQAPGQGLEWMGWIYPGSGNTKYNEKFQGRFVFSVDTSASTAYLQISSLKAEDTAVYFCANYGNYWFAYWGQGTLVTVSS
VL: DIVLTQSPDSLAVSLGERATINCKASQSVDFDGDTYMNWYQQKPGQPPKVLIYAASNLESGIPARFSGSGSGTDFTLTINSLEAEDAATYYCQQSNEDPWTFGGGTKVEIK
B5: AC10 H3/L3.3 (antibody, IgG1, name in Kabat numbering, V domains shown)
VH: QIQLVQSGPEVKKPGASVKVSCKASGYTFTDYYITWVRQAPGQGLEWMGWIYPGSGNTKYNEKFQGRFVFSVDTSASTAYLQISSLKAEDTAVYFCANYGNYWFAYWGQGTLVTVSS
VL: NIVLTQSPDSLAVSLGERATINCKASQSVDFDGDSYMNWYQQKPGQPPKVLIYAASNLESGIPARFSGSGSGTDFTLTINSLEAEDAATYYCQQSNEDPWTFGGGTKVEIK
B6: AC10 H3/L3.24 (antibody, IgG1, name in Kabat numbering, V domains shown)
VH: QIQLVQSGPEVKKPGASVKVSCKASGYTFTDYYITWVRQAPGQGLEWMGWIYPGSGNTKYNEKFQGRFVFSVDTSASTAYLQISSLKAEDTAVYFCANYGNYWFAYWGQGTLVTVSS
VL: DIVLTQSPDSLAVSLGERATINCKASQSVDFDGDSDMNWYQQKPGQPPKVLIYAASNLESGIPARFSGSGSGTDFTLTINSLEAEDAATYYCQQSNEDPWTFGGGTKVEIK
B7: AC10 H3/L3.2 (antibody, IgG1, name in Kabat numbering, V domains shown)
VH: QIQLVQSGPEVKKPGASVKVSCKASGYTFTDYYITWVRQAPGQGLEWMGWIYPGSGNTKYNEKFQGRFVFSVDTSASTAYLQISSLKAEDTAVYFCANYGNYWFAYWGQGTLVTVSS
VL: EIVLTQSPDSLAVSLGERATINCKASQSVDFDGDSYMNWYQQKPGQPPKVLIYAASNLESGIPARFSGSGSGTDFTLTINSLEAEDAATYYCQQSNEDPWTFGGGTKVEIK
B8: AC10 H3/L3.16 (antibody, IgG1, name in Kabat numbering, V domains shown)
VH: QIQLVQSGPEVKKPGASVKVSCKASGYTFTDYYITWVRQAPGQGLEWMGWIYPGSGNTKYNEKFQGRFVFSVDTSASTAYLQISSLKAEDTAVYFCANYGNYWFAYWGQGTLVTVSS
VL: DIVLTQSPDSLAVSLGERATINCKASQSVDFNGDSYMNWYQQKPGQPPKVLIYAASNLESGIPARFSGSGSGTDFTLTINSLEAEDAATYYCQQSNEDPWTFGGGTKVEIK
B9: AC10 H3/L3.17 (antibody, IgG1, name in Kabat numbering, V domains shown)
VH: QIQLVQSGPEVKKPGASVKVSCKASGYTFTDYYITWVRQAPGQGLEWMGWIYPGSGNTKYNEKFQGRFVFSVDTSASTAYLQISSLKAEDTAVYFCANYGNYWFAYWGQGTLVTVSS
VL: DIVLTQSPDSLAVSLGERATINCKASQSVDFDGKSYMNWYQQKPGQPPKVLIYAASNLESGIPARFSGSGSGTDFTLTINSLEAEDAATYYCQQSNEDPWTFGGGTKVEIK
B10: AC10 H3/L3.8 (antibody, IgG1, name in Kabat numbering, V domains shown)
VH: QIQLVQSGPEVKKPGASVKVSCKASGYTFTDYYITWVRQAPGQGLEWMGWIYPGSGNTKYNEKFQGRFVFSVDTSASTAYLQISSLKAEDTAVYFCANYGNYWFAYWGQGTLVTVSS
VL: DIVLTQSPDSLAVSLGERATINCKASQDVDFDGDSYMNWYQQKPGQPPKVLIYAASNLESGIPARFSGSGSGTDFTLTINSLEAEDAATYYCQQSNEDPWTFGGGTKVEIK
B11: AC10 H3/L3.20 (antibody, IgG1, name in Kabat numbering, V domains shown)
VH: QIQLVQSGPEVKKPGASVKVSCKASGYTFTDYYITWVRQAPGQGLEWMGWIYPGSGNTKYNEKFQGRFVFSVDTSASTAYLQISSLKAEDTAVYFCANYGNYWFAYWGQGTLVTVSS
VL: DIVLTQSPDSLAVSLGERATINCKASQSVDFDGYSYMNWYQQKPGQPPKVLIYAASNLESGIPARFSGSGSGTDFTLTINSLEAEDAATYYCQQSNEDPWTFGGGTKVEIK
B12: AC10 H3/L3.21 (antibody, IgG1, name in Kabat numbering, V domains shown)
VH: QIQLVQSGPEVKKPGASVKVSCKASGYTFTDYYITWVRQAPGQGLEWMGWIYPGSGNTKYNEKFQGRFVFSVDTSASTAYLQISSLKAEDTAVYFCANYGNYWFAYWGQGTLVTVSS
VL: DIVLTQSPDSLAVSLGERATINCKASQSVDFDGDDYMNWYQQKPGQPPKVLIYAASNLESGIPARFSGSGSGTDFTLTINSLEAEDAATYYCQQSNEDPWTFGGGTKVEIK
B13: AC10 H3/L3.23 (antibody, IgG1, name in Kabat numbering, V domains shown)
VH: QIQLVQSGPEVKKPGASVKVSCKASGYTFTDYYITWVRQAPGQGLEWMGWIYPGSGNTKYNEKFQGRFVFSVDTSASTAYLQISSLKAEDTAVYFCANYGNYWFAYWGQGTLVTVSS
VL: DIVLTQSPDSLAVSLGERATINCKASQSVDFDGDNYMNWYQQKPGQPPKVLIYAASNLESGIPARFSGSGSGTDFTLTINSLEAEDAATYYCQQSNEDPWTFGGGTKVEIK
B14: AC10 H3/L3.5 (antibody, IgG1, name in Kabat numbering, V domains shown)
VH: QIQLVQSGPEVKKPGASVKVSCKASGYTFTDYYITWVRQAPGQGLEWMGWIYPGSGNTKYNEKFQGRFVFSVDTSASTAYLQISSLKAEDTAVYFCANYGNYWFAYWGQGTLVTVSS
VL: DIQLTQSPDSLAVSLGERATINCKASQSVDFDGDSYMNWYQQKPGQPPKVLIYAASNLESGIPARFSGSGSGTDFTLTINSLEAEDAATYYCQQSNEDPWTFGGGTKVEIK
B15: AC10 H3/L3.9 (antibody, IgG1, name in Kabat numbering, V domains shown)
VH: QIQLVQSGPEVKKPGASVKVSCKASGYTFTDYYITWVRQAPGQGLEWMGWIYPGSGNTKYNEKFQGRFVFSVDTSASTAYLQISSLKAEDTAVYFCANYGNYWFAYWGQGTLVTVSS
VL: DIVLTQSPDSLAVSLGERATINCKASQSIDFDGDSYMNWYQQKPGQPPKVLIYAASNLESGIPARFSGSGSGTDFTLTINSLEAEDAATYYCQQSNEDPWTFGGGTKVEIK
B16: AC10 H3/L3.6 (antibody, IgG1, name in Kabat numbering, V domains shown)
VH: QIQLVQSGPEVKKPGASVKVSCKASGYTFTDYYITWVRQAPGQGLEWMGWIYPGSGNTKYNEKFQGRFVFSVDTSASTAYLQISSLKAEDTAVYFCANYGNYWFAYWGQGTLVTVSS
VL: DIVMTQSPDSLAVSLGERATINCKASQSVDFDGDSYMNWYQQKPGQPPKVLIYAASNLESGIPARFSGSGSGTDFTLTINSLEAEDAATYYCQQSNEDPWTFGGGTKVEIK
B17: AC10 H3/L3.15 (antibody, IgG1, name in Kabat numbering, V domains shown)
VH: QIQLVQSGPEVKKPGASVKVSCKASGYTFTDYYITWVRQAPGQGLEWMGWIYPGSGNTKYNEKFQGRFVFSVDTSASTAYLQISSLKAEDTAVYFCANYGNYWFAYWGQGTLVTVSS
VL: DIVLTQSPDSLAVSLGERATINCKASQSVDYDGDSYMNWYQQKPGQPPKVLIYAASNLESGIPARFSGSGSGTDFTLTINSLEAEDAATYYCQQSNEDPWTFGGGTKVEIK
B18: AC10 H3/L3.13 (antibody, IgG1, name in Kabat numbering, V domains shown)
VH: QIQLVQSGPEVKKPGASVKVSCKASGYTFTDYYITWVRQAPGQGLEWMGWIYPGSGNTKYNEKFQGRFVFSVDTSASTAYLQISSLKAEDTAVYFCANYGNYWFAYWGQGTLVTVSS
VL: DIVLTQSPDSLAVSLGERATINCKASQSVDDDGDSYMNWYQQKPGQPPKVLIYAASNLESGIPARFSGSGSGTDFTLTINSLEAEDAATYYCQQSNEDPWTFGGGTKVEIK
B19: AC10 H3/L3.25 (antibody, IgG1, name in Kabat numbering, V domains shown)
VH: QIQLVQSGPEVKKPGASVKVSCKASGYTFTDYYITWVRQAPGQGLEWMGWIYPGSGNTKYNEKFQGRFVFSVDTSASTAYLQISSLKAEDTAVYFCANYGNYWFAYWGQGTLVTVSS
VL: DIVLTQSPDSLAVSLGERATINCKASQSVDFDGDSYLNWYQQKPGQPPKVLIYAASNLESGIPARFSGSGSGTDFTLTINSLEAEDAATYYCQQSNEDPWTFGGGTKVEIK
B20: AC10 H3/L3.12 (antibody, IgG1, name in Kabat numbering, V domains shown)
VH: QIQLVQSGPEVKKPGASVKVSCKASGYTFTDYYITWVRQAPGQGLEWMGWIYPGSGNTKYNEKFQGRFVFSVDTSASTAYLQISSLKAEDTAVYFCANYGNYWFAYWGQGTLVTVSS
VL: DIVLTQSPDSLAVSLGERATINCKASQSVVFDGDSYMNWYQQKPGQPPKVLIYAASNLESGIPARFSGSGSGTDFTLTINSLEAEDAATYYCQQSNEDPWTFGGGTKVEIK
B21: AC10 H3/L3.4 (antibody, IgG1, name in Kabat numbering, V domains shown)
VH: QIQLVQSGPEVKKPGASVKVSCKASGYTFTDYYITWVRQAPGQGLEWMGWIYPGSGNTKYNEKFQGRFVFSVDTSASTAYLQISSLKAEDTAVYFCANYGNYWFAYWGQGTLVTVSS
VL: SIVLTQSPDSLAVSLGERATINCKASQSVDFDGDSYMNWYQQKPGQPPKVLIYAASNLESGIPARFSGSGSGTDFTLTINSLEAEDAATYYCQQSNEDPWTFGGGTKVEIK

Biological target: T1, human CD30 (commercial, conjugated to …)
Test: AlphaScreen competition

Binder | Fold IC50 vs H3/L3 [fold]
B1 | 1.3
B2 | 1.13
B3 | 1.45
B4 | 0.46
B5 | 1.66
B6 | 0.46
B7 | 1.24
B8 | 1.61
B9 | 1.21
B10 | 0.94
B11 | 0.78
B12 | 0.81
B13 | 0.71
B14 | 1.32
B15 | 0.58
B16 | 1.64
B17 | 0.63
B18 | 0.32
B19 | 1.36
B20 | 1.15
B21 | 1.04
